Measured values published in paper PMC11019746 (ACS Pharmacology & Translational Science, 2024).
Like-named read-outs stand apart in the source and are kept apart here. Where no end group is shown, it is not given here.

How the values were obtained:
hY1R = molecular target: T1, hY1R (Homo sapiens, UniProt P25929); assay: Y1R radioligand competition binding, whole SK-N-MC cells, [3H]UR-MK299; conditions: SK-N-MC neuroblastoma cells, [3H]UR-MK299 c = […]; read-out: pKi ± SEM hY1R (converted)
T1 construct: host or cells: SK-N-MC neuroblastoma cells
T1 sequence (P25929 1-384): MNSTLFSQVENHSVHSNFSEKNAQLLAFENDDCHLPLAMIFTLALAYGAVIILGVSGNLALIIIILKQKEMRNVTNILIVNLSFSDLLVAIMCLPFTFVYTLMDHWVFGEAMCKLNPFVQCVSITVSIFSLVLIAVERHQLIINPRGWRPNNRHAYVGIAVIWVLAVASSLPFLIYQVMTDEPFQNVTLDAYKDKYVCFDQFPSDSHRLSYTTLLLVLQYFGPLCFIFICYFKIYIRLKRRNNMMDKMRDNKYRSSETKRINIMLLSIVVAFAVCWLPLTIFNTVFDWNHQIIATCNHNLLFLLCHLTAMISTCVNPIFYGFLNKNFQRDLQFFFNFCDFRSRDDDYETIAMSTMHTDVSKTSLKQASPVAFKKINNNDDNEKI
Experimental: (§1) All radioligand binding assays were performed at intact Y receptor expressing cells at 23 ± 2 °C.
Competition binding assays at Y1R-expressing SK-N-MC neuroblastoma cells were performed as previously described using [^3H]UR-MK299 as radioligand (concentration: 0.15 nM).[33] […] (logarithmic form in the case of pKi values).

hY2R = molecular target: T2, hY2R (Homo sapiens, UniProt P49146); assay: Y2R radioligand competition binding, whole CHO-hY2R cells, [3H]propionyl-pNPY; conditions: read-out: pKi ± SEM hY2R (converted)
T2 construct: host or cells: CHO
T2 sequence (P49146 1-381): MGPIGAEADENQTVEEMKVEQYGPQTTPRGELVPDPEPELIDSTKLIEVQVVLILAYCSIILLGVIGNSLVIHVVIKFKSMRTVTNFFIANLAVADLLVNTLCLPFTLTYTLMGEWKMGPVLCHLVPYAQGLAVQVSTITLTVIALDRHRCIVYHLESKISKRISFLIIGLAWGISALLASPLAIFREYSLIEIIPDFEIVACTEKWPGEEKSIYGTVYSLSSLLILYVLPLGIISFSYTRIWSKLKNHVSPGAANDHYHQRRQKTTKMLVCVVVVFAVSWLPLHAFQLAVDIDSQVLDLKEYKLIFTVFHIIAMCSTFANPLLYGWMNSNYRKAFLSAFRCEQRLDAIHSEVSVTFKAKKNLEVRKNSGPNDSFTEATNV
Experimental: as §1

hY5R = molecular target: T3, hY5R (Homo sapiens, UniProt Q15761); assay: Y5R radioligand competition binding, whole HEC-1B-hY5R cells, [3H]propionyl-pNPY; conditions: [3H]propionyl-pNPY c = 5 nM
T3 construct: expressed in transfected cells; host or cells: HEC-1B (human endometrial cancer)
T3 sequence (Q15761 1-445): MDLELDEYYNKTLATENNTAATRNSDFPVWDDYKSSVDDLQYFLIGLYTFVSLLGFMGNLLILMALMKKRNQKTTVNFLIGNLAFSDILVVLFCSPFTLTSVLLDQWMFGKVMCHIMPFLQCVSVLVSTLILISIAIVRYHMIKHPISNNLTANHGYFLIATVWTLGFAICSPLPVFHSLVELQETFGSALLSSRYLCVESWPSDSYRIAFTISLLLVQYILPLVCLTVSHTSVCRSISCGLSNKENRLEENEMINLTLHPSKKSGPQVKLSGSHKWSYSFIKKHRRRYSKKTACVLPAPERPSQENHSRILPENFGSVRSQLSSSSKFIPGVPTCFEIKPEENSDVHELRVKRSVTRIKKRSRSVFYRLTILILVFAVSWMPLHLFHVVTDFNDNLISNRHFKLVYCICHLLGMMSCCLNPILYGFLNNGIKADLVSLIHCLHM
Experimental: as §1
(logarithmic form in the case of pKi values).

Y4R = Y4R (Homo sapiens, UniProt P50391); assay: Y4R miniGsi recruitment assay (HEK293T-NlucN-mGsi/Y4R-NlucC cells); format: cell-based; set-up: expressed in transfected cells; host or cells: HEK293T; conditions: read-out: miniGsi recruitment Emax ± SEM; further: relative to 1 µM hPP (100%)
Experimental: Furimazine was used as nanoluciferase substrate. The original stock was diluted 1:1000 in L15-HEPES to obtain the feed solution for the assay. Data analysis was performed based on the areas under the curves (time window: 45 min starting with the agonist addition) using GraphPad Prism 5. […] Efficacies Emax correspond to the upper plateaus of the normalized concentration–response curves.

hY4R [1] = molecular target: T4, hY4R (Homo sapiens, UniProt P50391); assay: Y4R Ca2+ aequorin assay (CHO-hY4R-Gqi5-mtAEQ cells); format: cell-based; set-up: expressed in transfected cells; host or cells: CHO (co-expressing Gqi5 and mitochondrially targeted aequorin); conditions: for EC50: CHO-hY4R-Gqi5-mtAEQ cells, agonist mode, read-out: Ca2+-aequorin pEC50 ± SEM (converted); for Emax: read-out: Ca2+-aequorin Emax ± SEM
Experimental: The assay was performed with live CHO-hY4R-Gqi5-mtAEQ cells as previously described (used buffer: buffer III). Measurements were carried out on a Tecan Infinite Lumi plate reader. Data analysis was performed as reported using GraphPad Prism 5 for the calculation of the area under the curve. […] Efficacies Emax correspond to the upper plateaus of the normalized concentration–response curves.

hY4R [2] = molecular target: T4, hY4R; set-up: expressed in transfected cells; host or cells: CHO (co-expressing Gqi5 and mitochondrially targeted aequorin); conditions: cited from earlier work
[3] = Chemical stability in PBS pH 7.4; format: physicochemical
Experimental: The chemical stability of the fluorescent ligands 16, 17, and 18 was investigated in PBS (adjusted to pH 7.4) at 22 °C. […] After time periods of 0, 6, and 48 h, an aliquot (25 μL) was withdrawn and added to 25 μL of acetonitrile/0.04% aq. TFA 1:9 v/v to obtain a peptide solution with a concentration of 50 μM. 20 μL of this solution were subjected to analytical RP-HPLC analysis using the same system and conditions as described under Analytical HPLC, but applying a different linear gradient: 0–14 min: A/B 90:10–45:55, 14–15 min: 45:55–5:95, 15–19 min: 5:95 (isocratic). A 1:1 mixture of PBS and acetonitrile/0.04% aq. TFA 1:9 v/v (20 μL) was analyzed to obtain the blank chromatogram.

[4] = molecular target: human neuropeptide Y Y1 receptor (human) (UniProt P25929); assay: radioligand binding; competition with [^3H]UR-MK299 ([…]) at intact SK-N-MC cells, 23 ± 2 °C, buffer II (150 mM NaCl)
[5] = molecular target: human neuropeptide Y Y5 receptor (human) (UniProt Q15761); assay: radioligand binding; competition with [^3H]propionyl-pNPY (5 nM) at intact HEC-1B-hY5R cells, 23 ± 2 °C, buffer II (150 mM NaCl)
[6] = molecular target: T5, human neuropeptide Y Y2 receptor (human, UniProt P49146 1-381); assay: radioligand binding; competition with [^3H]propionyl-pNPY (0.5 nM) at intact CHO-hY2R cells, 23 ± 2 °C, buffer I (sodium-free); conditions: one partner purified
T5 construct: also called hY2R; source: CHO-hY2R cells (from PerkinElmer), intact cells
T5 sequence (looked up): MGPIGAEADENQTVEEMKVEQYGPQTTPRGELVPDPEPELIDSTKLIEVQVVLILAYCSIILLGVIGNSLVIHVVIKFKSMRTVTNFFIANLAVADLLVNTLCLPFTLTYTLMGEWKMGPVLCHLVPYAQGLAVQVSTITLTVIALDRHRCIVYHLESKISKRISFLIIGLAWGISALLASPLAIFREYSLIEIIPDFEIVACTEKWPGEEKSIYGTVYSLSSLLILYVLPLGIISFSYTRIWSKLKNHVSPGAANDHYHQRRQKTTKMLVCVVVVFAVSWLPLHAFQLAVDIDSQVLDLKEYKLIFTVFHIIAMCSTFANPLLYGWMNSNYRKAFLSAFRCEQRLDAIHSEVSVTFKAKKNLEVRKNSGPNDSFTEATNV

[7] = molecular target: T6, human neuropeptide Y Y4 receptor (wild-type, CHO-hY4R-Gqi5-mtAEQ cells) (human, UniProt P50391 1-375); assay: flow cytometry on cells; association (0.7 nM 16, 1 nM 17, 0.5 nM 18) and dissociation (started with excess hPP and 5) at CHO-hY4R-Gqi5-mtAEQ cells, DPBS (137 mM Na^+), 22 ± 2 °C; monophasic and biphasic fits; Kd(kin) = koff/kon; conditions: one partner purified
T6 construct: The cells also express Gqi5 and mitochondrially targeted aequorin; also called wild-type Y4R

[8] = molecular target: T6, human neuropeptide Y Y4 receptor …; assay: cell-based or functional assay

Molecule	Kd (hY4R [2]) [nM]	pKi [4]	pKi [5]	pKi [6]	kobs(bi,fast) [7] [min⁻¹]	kobs(bi,slow) [7] [min⁻¹]	kobs(mono) [7] [min⁻¹]	also measured
C#CCCCCNC(=O)N=C(N)NCCC[C@@H]1NC(=O)CCC(=O)NCCCCNC(=O)N=C(N)NCCC[C@@H](C(=O)N[C@@H](CC(C)C)C(=O)N[C@@H](CCCNC(=N)N)C(=O)N[C@@H](Cc2ccc(O)cc2)C(N)=O)NC(=O)[C@H](Cc2ccc(O)cc2)NC1=O [Compound 11, (9S,12S,15S,E)-4-Amino-N-{(S)-1-[((S)-1-{[(S)-1-amino-3-(4-hydroxyphenyl)-1-oxopropan-2-yl]amino}-5-guanidino-1-oxopentan-2-yl)amino]-4-methyl-1-oxopentan-2-yl}-15-{3-[(E)-2-(hex-5-yn-1-ylcarbamoyl)guanidino]propyl}-12-(4-hydroxybenzyl)-2,11,14,17,20-pentaoxo-1,3,5,10,13,16,21-heptaazacyclopentacos-3-ene-9-carboxamide Tris(hydrotrifluoroacetate)]	–	–	–	–	–	–	–	Ki (hY1R): > 10000 nM; Ki (hY2R): > 10000 nM; Ki (hY5R; read-out: Ki hY5R (converted)): > 3000 nM; Ki (hY5R; read-out: pKi ± SEM hY5R (converted)): > 3160 nM; Emax (Y4R): 62 ± 1%; EC50 (hY4R [1]): 97.7 nM; Emax (hY4R [1]): 56 ± 3%
1: Sulfo-Cy5-labeled [K^4,Nle^17,30]hPP, reported Y4R fluorescent ligand [Compound 1]	11	–	–	–	–	–	–	–
2: 5-TAMRA-labeled [K^18,Nle^17,30]hPP, reported Y4R fluorescent ligand [Compound 2]	26	–	–	–	–	–	–	–
Cc1cc(/C=C/c2cc3c4c(c2)CCCN4CCC3)cc(C)[n+]1CCCC(=O)N[C@@H]1CC(=O)N[C@@H](CCCNC(=N)N)C(=O)N[C@@H](Cc2ccc(O)cc2)C(=O)N[C@H](C(=O)N[C@@H](CC(C)C)C(=O)N[C@@H](CCCNC(=N)N)C(=O)N[C@@H](Cc2ccc(O)cc2)C(N)=O)CCCNC(N)=NC(=O)NCCCCNC1=O [Compound 18]	–	–	–	–	–	–	–	Ki (hY1R): > 1000 nM; Ki (hY2R): > 1000 nM; Ki (hY5R; read-out: Ki hY5R (converted)): 840 nM; time with marginal degradation ([3]; PBS pH 7.4 (10% DMSO), room temperature): ≥ 6 h; chemical stability ([3]; PBS pH 7.4, room temperature, 48 h, 100 μM): slow decomposition; Emax (Y4R): 44 ± 2%; EC50 (hY4R [1]): 50.1 nM; Emax (hY4R [1]): 61 ± 5%
Sulfo-Cy5-[K^4]hPP: Sulfo-Cy5-labeled [K^4]hPP, reported fluorescent Y4R ligand (APLKPVYPGDNATPEQMAQYAADLRRYINMLTRPRY; not fully specified)	5.6	–	–	–	–	–	–	–
RYRLRY-NH2 (also: Sulfo-Cy5 (S0223) conjugated to the amine of the cyclic precursor peptide 6, N^ω-carbamoylated arginine in the ring, position not given here, peptide part as in m6; structure drawn in Scheme 2; source: synthetic peptide: from precursor peptide 6 and the succinimidyl ester 13 (S0586) of Sulfo-Cy5 (S0223), preparative HPLC) [fluorescent ligand 17 (Sulfo-Cy5-labeled cyclic hexapeptide)]	–	< 6	< 6	< 6	1.89	0.071	0.15	–
RYRLRY-NH2 (also: Py-1 cyanine dye on the amine of a carbamoylated Arg in the ring, position not given here, cyclic, ring closure not given here, peptide part as in m6; structure drawn in Scheme 2; source: synthetic peptide: from precursor peptide 6 and the pyrylium dye Py-1 (14), preparative HPLC) [fluorescent ligand 18 (Py-1-labeled cyclic hexapeptide)]	–	< 6	6.08	< 6	0.7	0.034	0.1	–
RYRLRY-NH2 (not fully specified (bridges); also: Cy3B conjugated to the amine of the cyclic precursor peptide 6, N^ω-carbamoylated arginine in the ring, position not given here, structure drawn in Scheme 2; source: synthetic peptide: from precursor peptide 6 and Cy3B succinimidyl ester (12), preparative HPLC) [fluorescent ligand 16 (Cy3B-labeled cyclic hexapeptide)]	–	6.91	6.32	< 6	1	0.048	0.18	–
RYRLRY (not fully specified; as 11; the alkyne of the carbamoylated arginine in position 1 joined by click chemistry (triazole) to the azido-functionalized pyridinium-type cyanine dye 15 (from Py-5); C-terminal amide, peptide chain as in 11, whose linear precursor 10 is printed in three-letter code at h-0020; 19 is made from 11 and dye 15; source: synthetic peptide: from 11 and the azido-functionalized dye 15 by copper(I)-catalyzed click reaction, preparative HPLC) [fluorescent ligand 19 (Py-5-labeled cyclic hexapeptide)]	–	< 6	< 6	< 6	–	–	–	EC50, Ca^2+-aequorin assay (CHO-hY4R-Gqi5-mtAEQ cells) [8]: 58 nM
